What was measured:
f-VHLTPE = test system: T1, f-VHLTPE
T1 sequence: VHLTPE

[1] = test system: T2, fructosyl valyl histidine
T2 sequence: VH

f-VHLTP = test system: T3, f-VHLTP
T3 sequence: VHLTP

[2] = test system: T4, N-terminal-valine fructosylated peptide having an amino acid sequence represented by SEQ ID NO: 2
T4 sequence: VHL

f-VHLT = test system: T5, f-VHLT
T5 sequence: VHLT

defructosylation enzyme originating from a plant belonging to the family Zingiberaceae (Zingiber officinale rhizome)
Absorbance at 700 nm (mAbs), colour development of DA-64 (hydrogen peroxide produced) (f-VHLTPE): 223 mAbs
enzyme activity with the peptide as a substrate (f-VHLTPE): the enzyme is effective on fructosyl valine and at least fructosyl peptides having amino acid sequences represented by SEQ ID NOs: 1 to 5
Absorbance at 700 nm (mAbs), colour development of DA-64 (hydrogen peroxide produced) [1]: 735 mAbs
Michaelis constant (Km), Lineweaver-Burk's plots of enzyme activity (glucosone production) [1]: the Km value of the enzyme for fructosyl valyl histidine: 1.2 mM
absorbance at 550 nm (glucosone produced, glucose oxidase/peroxidase colour system) [1]: The absorbance was found to increase in accordance with the increase in concentration of fructosyl valyl histidine
enzyme activity with the peptide as a substrate [1]: the enzyme is effective on fructosyl valine and at least fructosyl peptides having amino acid sequences represented by SEQ ID NOs: 1 to 5
Absorbance at 700 nm (mAbs), colour development of DA-64 (hydrogen peroxide produced) (f-VHLTP): 198 mAbs
enzyme activity with the peptide as a substrate (f-VHLTP): the enzyme is effective on fructosyl valine and at least fructosyl peptides having amino acid sequences represented by SEQ ID NOs: 1 to 5
Absorbance at 700 nm (mAbs), colour development of DA-64 (hydrogen peroxide produced) [2]: 570 mAbs
capillary electrophoresis peak area after 16 hours of reaction at 37° C. (defructosylation) [2]: the peak attributed to f-VHL does not exist and the peak attributed to VHL is increased (area: 32 mABU×sec)
enzyme activity with the peptide as a substrate [2]: the enzyme is effective on fructosyl valine and at least fructosyl peptides having amino acid sequences represented by SEQ ID NOs: 1 to 5
Absorbance at 700 nm (mAbs), colour development of DA-64 (hydrogen peroxide produced) (f-VHLT): 558 mAbs
enzyme activity with the peptide as a substrate (f-VHLT): the enzyme is effective on fructosyl valine and at least fructosyl peptides having amino acid sequences represented by SEQ ID NOs: 1 to 5
